Experimental data reported in patent US20020176853A1.

Target: mouse pro-IL-1β (mouse) (UniProt P10749)
Assay: cell-based or functional assay

UniProt P10749, sequence (P10749 whole entry): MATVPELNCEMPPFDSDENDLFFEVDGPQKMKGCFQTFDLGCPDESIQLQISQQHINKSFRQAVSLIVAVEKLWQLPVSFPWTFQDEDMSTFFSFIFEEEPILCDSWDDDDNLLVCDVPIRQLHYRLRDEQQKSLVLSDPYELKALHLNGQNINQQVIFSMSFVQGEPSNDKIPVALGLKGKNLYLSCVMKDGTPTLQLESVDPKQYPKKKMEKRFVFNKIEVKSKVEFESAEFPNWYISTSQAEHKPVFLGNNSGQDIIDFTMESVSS

secretion of mature IL-1β into the culture medium (ELISA), COS-7 cells: 80 to 250 pg/mL
Substance: pro-caspase-1 (full-length, wild-type) (from UniProt P29466 1-404) (enzyme)
